Results taken from patent US12269880B2, “LAG3 binding peptides” (Leidos, Inc., priority 2019, dated 2025).
“And” between values parts separate entries of the source, which are not always exact repeats. Equal entries are not always repeated.

Assays:
LAG3/MHC-II interaction = target: T1, LAG3/MHC-II interaction (Homo sapiens, UniProt P18627); assay: HTRF LAG3/MHC-II binding assay (Cisbio)
T1 construct: purchased Cisbio US Inc
T1 sequence (P18627 23-450 limits assumed): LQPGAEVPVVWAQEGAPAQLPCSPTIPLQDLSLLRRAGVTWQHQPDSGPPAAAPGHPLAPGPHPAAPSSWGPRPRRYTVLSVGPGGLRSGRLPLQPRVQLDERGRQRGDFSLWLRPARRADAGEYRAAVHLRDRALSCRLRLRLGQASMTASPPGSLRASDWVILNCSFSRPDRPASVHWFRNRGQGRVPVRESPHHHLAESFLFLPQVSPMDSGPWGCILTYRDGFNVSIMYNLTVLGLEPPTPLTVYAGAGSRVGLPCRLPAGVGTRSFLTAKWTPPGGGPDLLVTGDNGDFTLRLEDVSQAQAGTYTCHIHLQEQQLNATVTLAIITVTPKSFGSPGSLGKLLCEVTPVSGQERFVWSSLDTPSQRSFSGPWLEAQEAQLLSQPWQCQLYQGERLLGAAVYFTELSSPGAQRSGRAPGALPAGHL
Text: FIG. 2 is a graph showing the results of a homogeneous time-resolved fluorescence (HTRF) assay for peptide LAG3-11. Reference Ab-LAG3 is an anti-LAG3 antibody. OVA, the ovalbumin (OVA) peptide (ISQAVHAAHAEINEAGR, SEQ ID NO:8). “HTRF ratio” is the emission at 665 nm (acceptor)/emission at 620 nm (donor) multiplied by a factor or 10^4.
A homogeneous time-resolved fluorescence (HTRF) LAG3/MHC-II binding assay (Cisbio US Inc.) was used to measure the interaction between MHC-II and LAG3 in the presence of peptides. In this assay, the interaction between Tag1-LAG3 and Tag2-MHC-II is detected by using anti-Tag1-Terbium (HTRF donor) and anti-Tag2-XL665 (HTRF acceptor). When the donor and acceptor antibodies are brought into close proximity due to LAG3 and MHC-II binding, excitation of the donor antibody triggers fluorescent resonance energy transfer (FRET) towards the acceptor antibody, which in turn emits specifically at 665 nm. This specific signal is directly proportional to the extent of LAG3/MHC-II interaction. Thus, an agent that blocks the interaction between LAG3 and MHC-II will cause a reduction in HTRF ratio.
An anti-human LAG3 antibody (Novoprotein #GMP-A092, Lot 0331158, 500 nM) was tested in the assay at an eleven-point, serially diluted semi-log dose response curve starting at 100 nM and served as a positive control. The ovalbumin peptide was used as a negative control. Peptides were reconstituted at a concentration of 20 mM in […] and tested at an eleven-point dose response curve starting at 100 µM followed by 4-fold dilutions. […]

[1] = target: T2, soluble recombinant human LAG3 (Homo sapiens, UniProt P18627); assay: Clonal phage ELISA after phage display bio-panning; format: binding; details: for Clonal Phase ELISA uncoated signal: uncoated (background)
T2 construct: soluble recombinant human LAG3
T2 sequence (P18627 23-450 limits assumed): T1 sequence (P18627 23-450 limits assumed)
Text: The TriCo-20™, TriCo-16™, Ph.D.-12™, and Ph.D. C7™ Phage Display Peptide Libraries (Creative Biolabs, 45-1 Ramsey Road, Shirley, NY 11967) were screened by performing several rounds of bio-panning to identify binders of soluble recombinant human LAG3.

human LAG3/FGL1 = target: T3, human LAG3/FGL1 (Homo sapiens, UniProt P18627); assay: Human LAG3/FGL1 TR-FRET binding assay (BPS Bioscience)
T3 construct: purchased BPS Bioscience
T3 sequence (P18627 23-450 limits assumed): T1 sequence (P18627 23-450 limits assumed)
Method: The peptides were tested using a human LAG3/FGL1 TR-FRET binding assay (BPS Bioscience) carried out according to the manufacturer's instructions.
Peptide stocks of LAG3-11, LAG3-42, LAG3-48, LAG3-51, LAG3-54, LAG3-56, LAG3-60 and OVA were prepared at 1 mM followed by a 1:5 dilution in plate reactions. LAG3-11 and OVA were tested at 200, 50, 13, 3, 0.8, 0.2, 0.05, and 0.01 μM. The other peptides were tested at 200, 50, 13, and 3 μM. A neutralizing anti-human LAG3 antibody (BPS Bioscience Cat. #71219) was used as a positive control.
Reaction mixes were incubated 1 hr at RT before development. After development, plate was read in a Tecan M1000 TR-FRET instrument. Percent activity was calculated as follows: % Activity=100×[(sample−minimum)/(maximum−minimum)]

[2] = LOG [Compound] M tested for peptide −4, single replicates
[3] = LOG [Compound] M tested for peptide −4.60206, single replicates
[4] = LOG [Compound] M tested for peptide −5.20412, single replicates
[5] = LOG [Compound] M tested for peptide −5.80618, single replicates
[6] = LOG [Compound] M tested for peptide −6.40824
[7] = LOG [Compound] M tested for peptide −7.0103, single replicates
[8] = LOG [Compound] M tested for peptide −7.61236, single replicates
[9] = LOG [Compound] M tested for peptide −8.21442, single replicates
[10] = LOG [Compound] M tested for peptide −8.81648, single replicates
[11] = LOG [Compound] M tested for peptide −9.41854, single replicates
[12] = LOG [Compound] M tested for peptide −10.0206
[13] = LOG [Compound] M tested for peptide −10.6227

HTRF ratio (LAG3/MHC-II interaction; [2])	HTRF ratio (LAG3/MHC-II interaction; [3])	HTRF ratio (LAG3/MHC-II interaction; [4])	HTRF ratio (LAG3/MHC-II interaction; [5])	HTRF ratio (LAG3/MHC-II interaction; [6])	HTRF ratio (LAG3/MHC-II interaction; [7])	HTRF ratio (LAG3/MHC-II interaction; [8])	HTRF ratio (LAG3/MHC-II interaction; [9])	HTRF ratio (LAG3/MHC-II interaction; [10])	HTRF ratio (LAG3/MHC-II interaction; [11])	HTRF ratio (LAG3/MHC-II interaction; [12])	HTRF ratio (LAG3/MHC-II interaction; [13])	Clonal Phase ELISA coated signal [1]	Clonal Phase ELISA uncoated signal [1]	Sequence	inhibition of the interaction between human LAG3 and FGL1 (human LAG3/FGL1)
2986 and 3079	5934 and 5959 and 5991	8233 and 7988 and 7918	8525 and 8398 and 8342	8614 and 8929 and 9290	9142 and 8745 and 8892	8987 and 8983 and 9320	9275 and 8931 and 9366	9059 and 9248 and 8887	8772 and 8594 and 9169	8924 and 8349 and 8904	8795 and 9240 and 9350	0.330	0.091	HESGSVPHPWQFFTHYVS (LAG3-60 peptide)	–
7234 and 7037 and 7142	8389 and 8097 and 8045	8629 and 8765 and 8733	9281 and 8905 and 8572	9189 and 8945 and 8784	9432 and 8649 and 9072	9209 and 8787 and 9109	9407 and 8205 and 9247	9579 and 9134 and 8703	9137 and 8550 and 8958	8860 and 8937 and 8907	9016 and 8914 and 9210	0.378	0.084	DWNFQQWDWKKHNHLDSHVV (LAG3-42 peptide)	–
3507 and 2809 and 3028	5662 and 5088 and 5724	8301 and 8213 and 8200	8663 and 9082 and 9045	9264 and 9194 and 9135	8727 and 9103 and 9142	8936 and 9357 and 9297	9082 and 9139 and 9095	8708 and 9153 and 8757	8564 and 8922 and 8442	8765 and 9097 and 8602	8663 and 8904 and 9303	0.227	0.094	FYSPNHEEYHDWNVDSSVNE (LAG3-48 peptide)	–
4194 and 4083 and 4373	6880 and 7058 and 7142	8218 and 8349 and 8414	8791 and 8658 and 8464	9040 and 9185 and 9082	8147 and 9275 and 9111	8935 and 9303 and 9093	8765 and 9591 and 9178	8856 (2×) and 8869	9050 and 9029 and 9176	9022 and 8887 and 8540	8885 and 9204 and 8617	0.529	0.101	HIQNWSYWLNQDMMNQQVWKS (LAG3-56 peptide)	inhibit the interaction between human LAG3 and FGL1
3058 and 2773 and 2875	6649 and 6521 and 6468	7908 and 8071 and 8322	8723 and 8946 and 8748	9265 and 8583 and 8662	8098 and 9193 and 9017	8762 and 9360 and 9173	8950 and 8608 and 8357	8834 and 8187 and 8957	8867 and 8809 and 8630	8784 and 8779 and 8696	9082 and 9104 and 9298	0.234	0.076	KVWQVPQDTQHWLSPNFYSV (LAG3-51 peptide)	–
2283 and 4122 and 3912	7055 and 6709 and 6833	8691 and 8561 and 8512	9156 and 9205 and 9142	9161 and 9048 and 8773	9105 and 9141 and 9004	8674 and 9031 and 9075	8996 and 8645 and 8867	8130 and 8918 and 8630	8942 and 8930 and 8755	8344 and 9203 and 8748	9100 and 9262 and 8921	0.417	0.103	ACGPGSFGDCGGG (LAG3-54 peptide)	–

Sequence	HTRF ratio (LAG3/MHC-II interaction; [2])	HTRF ratio (LAG3/MHC-II interaction; [3])	HTRF ratio (LAG3/MHC-II interaction; [4])	HTRF ratio (LAG3/MHC-II interaction; [5])	HTRF ratio (LAG3/MHC-II interaction; [6])	HTRF ratio (LAG3/MHC-II interaction; [7])	HTRF ratio (LAG3/MHC-II interaction; [8])	HTRF ratio (LAG3/MHC-II interaction; [9])	HTRF ratio (LAG3/MHC-II interaction; [10])	HTRF ratio (LAG3/MHC-II interaction; [11])	HTRF ratio (LAG3/MHC-II interaction; [12])	HTRF ratio (LAG3/MHC-II interaction; [13])	Clonal Phase ELISA coated signal [1]	Clonal Phase ELISA uncoated signal [1]	inhibition of the interaction between human LAG3 and FGL1 (human LAG3/FGL1)
ISQAVHAAHAEINEAGR (listed as Gallus gallus) [OVA peptide, reference compound]	7154 and 8492 and 8909	8449 and 8472 and 8683	9015 and 8616 and 8579	9180 and 8833 and 9374	9189 and 8634 and 9280	8380 and 8654 and 8970	9015 and 8776 and 8568	9219 and 8624 and 8987	8684 and 8724 and 8639	8625 and 8396 and 8788	8356 and 8986 and 8457	8633 and 9086 and 8892	–	–	–
